Experimental data published in publication PMC10698194.

Molecular target: mouse KOR-EGFP (mouse) (UniProt P33534)
Sequence (P33534 whole entry): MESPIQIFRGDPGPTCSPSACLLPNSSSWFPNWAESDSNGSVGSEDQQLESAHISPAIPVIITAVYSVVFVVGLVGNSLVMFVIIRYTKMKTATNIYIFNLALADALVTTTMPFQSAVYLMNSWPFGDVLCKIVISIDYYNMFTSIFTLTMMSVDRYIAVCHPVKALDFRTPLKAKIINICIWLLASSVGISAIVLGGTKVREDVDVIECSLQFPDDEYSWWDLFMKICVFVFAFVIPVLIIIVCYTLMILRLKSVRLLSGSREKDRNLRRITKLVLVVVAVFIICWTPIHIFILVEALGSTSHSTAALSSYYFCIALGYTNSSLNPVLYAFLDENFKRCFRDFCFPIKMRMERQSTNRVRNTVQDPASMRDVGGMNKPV

**Q.** How did the β-arrestin-2 recruitment (BRET), EC50 turn out when dynorphin (dyn) A_(1-13) (peptide) was run?
**A.** The β-arrestin-2 recruitment (BRET), EC50 was 0.031 µM.
